Data taken from paper PMC1475753.
Numbering of substitutions follows the chain as printed.

Assays:
φ29 DNA polymerase K538A = biological target: T1, φ29 DNA polymerase K538A (bacteriophage φ29, UniProt P03680 1-575, K538A); assay: EMSA
T1 sequence: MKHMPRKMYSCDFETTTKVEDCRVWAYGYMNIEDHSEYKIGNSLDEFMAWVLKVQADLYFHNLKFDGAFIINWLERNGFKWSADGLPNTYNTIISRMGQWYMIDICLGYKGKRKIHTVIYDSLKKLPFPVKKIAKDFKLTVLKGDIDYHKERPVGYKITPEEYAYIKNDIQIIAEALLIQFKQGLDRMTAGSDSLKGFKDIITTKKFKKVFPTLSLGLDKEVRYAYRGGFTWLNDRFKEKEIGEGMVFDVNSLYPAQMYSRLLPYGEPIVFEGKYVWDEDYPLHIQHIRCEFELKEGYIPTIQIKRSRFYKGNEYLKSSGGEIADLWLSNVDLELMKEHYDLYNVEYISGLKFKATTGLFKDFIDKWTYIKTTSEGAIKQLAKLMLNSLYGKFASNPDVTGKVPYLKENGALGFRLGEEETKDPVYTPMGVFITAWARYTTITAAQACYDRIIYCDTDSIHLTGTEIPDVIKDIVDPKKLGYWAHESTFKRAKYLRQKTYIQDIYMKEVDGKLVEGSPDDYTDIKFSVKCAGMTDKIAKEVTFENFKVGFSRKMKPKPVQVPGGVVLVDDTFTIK

φ29 DNA polymerase T573A = biological target: T2, φ29 DNA polymerase T573A (bacteriophage φ29, UniProt P03680 1-575, T573A); assay: EMSA
T2 sequence: T1 sequence with A538K, T573A

B1: sp1/sp1c+6 (15/21mer) (dsDNA)
DNA 1: GATCACAGTGAGTAC
DNA 2: TCTATTGTACTCACTGTGATC
B1: no binding (φ29 DNA polymerase K538A); no binding (φ29 DNA polymerase T573A).
